{"source": "patent US12559525B2", "about": "“Conjugated fibronectin-binding peptides for use in tumor or fibrosis diagnosis and therapy” (priority 2021, dated 2026)", "key": {"[1]": {"molecular_target": "T1, Fib1 (N-terminal 30 kDa fragment of fibronectin, SEQ ID NO: 14) (Homo sapiens, UniProt P02751)", "T1 construct": "6-His (C); made in house", "T1 sequence (P02751 32-290)": "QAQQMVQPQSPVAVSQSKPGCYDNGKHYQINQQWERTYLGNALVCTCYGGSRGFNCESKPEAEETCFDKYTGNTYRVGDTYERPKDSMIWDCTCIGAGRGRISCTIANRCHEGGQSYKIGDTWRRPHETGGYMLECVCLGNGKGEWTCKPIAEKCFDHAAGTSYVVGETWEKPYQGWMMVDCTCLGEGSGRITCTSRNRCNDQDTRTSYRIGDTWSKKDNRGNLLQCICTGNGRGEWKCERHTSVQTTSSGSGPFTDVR", "test": "Affinity towards Fib1 by fluorescence polarization", "type": "binding", "conditions": "fluorescence polarization assay (Example 1, FIG. 1)", "protocol": "FIG. 1: Affinity measurements of Cy5-labelled FnBPA5.1 and FnBPA5 towards the N-terminal 30 kDa fragment of Fibronectin (Fib1) according to SEQ ID NO: 14. Curves display triplicates measurements of fluorescence polarization. Error bars display standard deviations. Analysis was conducted using GraphPad Prism. KD is shown in nM.\nPreferably, said affinity is measurable by using a fluorescence anisotropy assay, using a peptide with N-terminally appended Cy5 label (as described in Preparative Example 1). Detailed protocol for the measurement is included in Example 1.\nFor the affinity measurement experiment, Cy5-FnBPA5.1 (according to SEQ DI NO: 12) and Cy5-FnBPA5 (according to SEQ DI NO: 13) (48 nM) were mixed with different concentrations of Fib 1—N-terminal 30 kDa fragment of fibronectin according to SEQ ID NO: 14 (0 nM-4.5 μM) in PBS pH 7.4. Samples were incubated for 1 h (37° C., 70 rpm) and fluorescence polarization was measured in triplicates using the Pherastar FSX plate reader (BMG Labtech; Optic module: FP 590-50 675-50 675-50). […]"}, "PC-3 tumor": {"tested_on": "PC-3 tumor", "test": "Biodistribution of 111In-labelled peptides in PC-3 xenografts", "type": "in vivo, CD1 nu/nu mice", "conditions": "radioisotope-labelled peptide", "protocol": "FIG. 4: Biodistribution of ^111In-labeled NODAGA-FnBPA5 and its engineered version NODAGA-FnBPA5.1 in PC-3 tumor-bearing CD1 nu/nu mice 24 hours after injection. Results are shown as averages of % injected activity per gram±SD (n=4).\n(§1) Animal studies were carried out according to the Swiss Animal Protection Law under the license AG75700. For tumor implantation, 5×10^6 PC-3 cells in 100 μL PBS were injected subcutaneously into both shoulders of female CD1 nu/nu mice (Charles River, Germany) under isoflurane/oxygen anesthesia. Tumor growth was inspected regularly and tumors were measured using a caliper. Five weeks after tumor implantation, mice were injected via the tail vein with approximately 100-150 kBq of the corresponding ^111In-labelled radiotracers, previously diluted with PBS to a concentration of 1-1.5 MBq/mL. At 24 h p.i., mice were euthanized using CO2. The organs of interest were harvested, weighed and counted by means of gamma counter together with three standards containing 100 μL of the injection solution. The percentage of injected activity per gram (% IA/g) was calculated based on the average of the standards set at 100%."}, "67NR breast tumor": {"tested_on": "67NR breast tumor", "test": "Biodistribution of 111In-labelled peptides in 67NR orthotopic and syngeneic breast tumor model", "type": "in vivo, Balb/c mice", "conditions": "radioisotope-labelled peptide, 67NR orthotopic and syngeneic breast tumor mice", "protocol": "FIG. 5: Biodistribution of ^111In-labeled NODAGA-FnBPA5 and its engineered version NODAGA-FnBPA5.1 in 67NR tumor-bearing mice 24 hours after injection. Results are shown as averages of % injected activity per gram±SD (n=4).\nas §1, with “implantation, 40′000 67NR” for “implantation, 5×10^6 PC-3”, “in 50” for “in 100”, “into the mammary fat pad at the 4th nipple” for “into both shoulders”, “female Balb/c” for “female CD1 nu/nu”, “caliper. Two” for “caliper. Five”"}}, "note": "No end group written: not given here."}
{"substance": "Gln-Val-Thr-Thr-Gly-Ser-Asn-Leu-Val-Glu-Phe-Thr-Glu-Glu-Ser-Leu-Gly-Ie-Val-Thr-Gly-Ala-Val-Ser-Asp-His-Thr-Thr-Val-Glu-Asp-Thr (QVTTGSNLVEFTEESLGIVTGAVSDHTTVEDT; not fully specified) [FnBPA5.1]", "values": [{"measurement": "Affinity for Fib1 compared with FnBPA5", "setting": "[1]", "value": "improved affinity"}, {"measurement": "Uptake in tumors compared with FnBPA5", "setting": "PC-3 tumor; PC3 xenograft mice", "value": "improved uptake in tumors"}, {"measurement": "Uptake in spleen and liver compared with FnBPA5", "setting": "PC-3 tumor; tumor model not given", "value": "lower uptake in spleen and liver"}, {"measurement": "Uptake in tumors compared with FnBPA5", "setting": "67NR breast tumor", "value": "improved uptake in tumors"}]}
